The numbers were not newly measured in publication PMC7618755, which cites them from elsewhere.

pKd: −log10 of the molar value.

Data set [1] concerns the target PD-L1 (Homo sapiens) (UniProt Q9NZQ7).
For data set [2], the target named is CD80 (Homo sapiens) (UniProt P33681).

UniProt Q9NZQ7, sequence (Q9NZQ7 19-238): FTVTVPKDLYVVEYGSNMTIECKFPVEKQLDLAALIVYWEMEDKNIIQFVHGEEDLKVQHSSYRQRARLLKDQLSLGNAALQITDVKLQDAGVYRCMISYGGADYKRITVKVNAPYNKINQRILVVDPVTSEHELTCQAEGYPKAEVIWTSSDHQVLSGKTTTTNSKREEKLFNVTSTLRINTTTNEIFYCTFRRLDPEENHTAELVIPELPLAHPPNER

What is called pKd is the negative decadic logarithm of the Kd, by convention in mol/L. For the substance CD80 (from UniProt P33681), the pKd was 4.70 in data set [1] and 4.46 in data set [2].
